From the nanobody polyreactivity screen of Harvey et al. (2022)

Assay: yeast display, Sf9 membrane polyspecificity reagent, FACS + sequencing; frameworks hold sequencing errors
Method in brief: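 Using colony PCR, genes from sorted yeast display clones were amplified, then sequenced on MiSeq at 2 × 250 and filtered by CDR length. The clones had been stained with 10% biotinylated, detergent-solubilized Sf9 membrane reagent for 1 hour at 4 °C and sorted by FACS into low and high (top ~1%) gates on anti-HA and streptavidin fluorescence. Polyreactivity labels come from the gate of origin.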

Sequence | polyreactivity (PSR sort gate)
QVHLVESGGGLVQAGGSLRLSCAASGITFSKYEMGWYRQAPWKERELVAAITSTGSTYYADSVKGRFTISRDNAKNTVYLQMNSVKPEDTAVYYCAAERRVFYYCHKLTYWYDYWGQGTQVTVSS | low polyreactivity
QVHLVESGGGLVQAGGSLRLSCAASGITFSPYAMGWSRQAPGKERELVAAISSGSSTKYADSVKGRFTISRDNAKNTVYLQMNSLKPEDTAVYYCAARWFDGYAAYGYWGQGTEVTVSS | high polyreactivity
QVHLVESGGGLVQAGGSLRLSCAASGLIFAFYGMGWYRPAPGKERELVASIDKSGGSTYADSVKGRFTISRDNAKNTVYLQMNSLKPEDTAVSYCATNVGGGWAYEYWGQGTQVTVSS | low polyreactivity
QVHLVESGGGLVQAGGSLRLSCAASGLIFLWNAMGWYRQAPGKERELVAAISWSGGSTYYADSVKGRFTISRDNAKNTVYLQMNSLKPEDTAVYYCIRLLSLEFGFWGQGTQVTVSS | high polyreactivity
QVHLVESGGGLVQAGGSLRLSCAASGLTFRYYAMGWYRPAPGKERELVAAISWSGGSTYYADSVKGRFTISRDNAKNTVYLQMNSQKPEDTAVYDCNTVGRSSSLSVFLIGYGYWGQATQVTVSS | high polyreactivity
QVHLVESGGGLVQAGGSLRLSCAASGLTFYGNAMGCYRQAPGKERELVAAISSSGGTTYYADSVKGRFTISRDNAKNTVYLQMNSLKPEDTAVYYCAARPSGGFESTRTRDYWGQGTQVTVSS | low polyreactivity
QVHLVESGGGLVQAGGSLRLSCAASGLTFYWYVMGWYRQAPGKERELVAVITGSGGSTYYADSVKGRFTISRDNAKNTVYLQMNSLKPEDTAAYYCARGGRYNRYYYWGQGTQVTVSS | high polyreactivity
QVHLVESGGGLVQAGGSLRLSCAASGNIFGLYAMGWYRQAPWKERELVAAISWRGGNTYYADYVKGRFTISRDNAKNTVYLQMNSLKPEDTAVYYCAAEAGYWYDYWGQGTQVTVSS | high polyreactivity
QVHLVESGGGLVQAGGSLRLSCAASGNIFYPNAMGWYRQAPGKERELVAAISSSGGSTYYADSVKGRFTISRDNAKNTVYLQMNSLKPEDTAVYYCNAYRQYRYDYWGQGTQVTVSS | low polyreactivity
QVHLVESGGGLVQAGGSLRLSCAASGNIIYWNGMGWYRKAPGKEREFVADITASGGSTYYADSVKGRFTISRDNAKNTVYLQMNSLIPEDTAVYYCAAQGVDSYYENDYWGQGTQVTVSS | high polyreactivity
QVHLVESGGGLVQAGGSLRLSCAASGRGYYALGWYRQAPGKERELVAAISRGGNTKYADSVKGRFTISRDNAKNSVYLQMNSLKPEDTAVYYCAAYAYSYELYYWGQGTQVTVSS | high polyreactivity
QVHLVESGGGLVQAGGSLRLSCAASGRIFARNAKGWYRQAPGKERELVATIRVGGGSTYYADSVKGRYTISRDNAKNTVYLQMNSLKPEDTAVYYCAVRQLYSYPGDRRGYYWGQGTQVTVSS | low polyreactivity
QVHLVESGGGLVQAGGSLRLSCAASGRIFDYYTMGWYRQAPGKERELVAAITWIGGSTYYEDSVKGRFTISRDNAKNTVYLQMNSLKPEDTAVYYCYAEGTALPYRADTVGGYYYWGQGTQVTVSS | low polyreactivity
QVHLVESGGGLVQAGGSLRLSCAASGRIFKKYAMGWYRQAPGKESELVATISSGGSTYYADSVKGRFTISRDNAKNTVYLQMNSLNPEDTAVYYCARREYVRRDYFVTTYDYWGQGTQVTVSS | low polyreactivity
QVHLVESGGGLVQAGGSLRLSCAASGRIFRQYAMGWYRQAPGKERELVAAISYSGGSTYYADSVKGRFTISRDYAKNTVYFQMNSLKPEDTAVYYCAATRWVPATGKFGYWGQGTQVTVSS | high polyreactivity
QVHLVESGGGLVQAGGSLRLSCAASGRIFTYYAMAWYRQAPGKEREMVAGITGSGASTYYADSVKGRFTISRDNAKNTVYLQMNSLKPEDTAVYYCNAPYVIRPFRGRYDYWGQGTQVTVSS | high polyreactivity
QVHLVESGGGLVQAGGSLRLSCAASGRIFYGYVMGWYRQAPGTEREFVAAITWSAGSTYYADSVKGRFTISRDNAKNTVYLQMNSLKPEDTALYYCADGGGHYQEYLMEDYWGQGTQVTVSS | high polyreactivity
QVHLVESGGGLVQAGGSLRLSCAASGRIMVHNAMGWYRQAPGKERELVAVITARGASTYYADSVKGRFTISRDNAKNTVYLQMNSLKPEDTAVYYCATDKRPKYYNQYDYWGQGTQVTVSS | low polyreactivity
QVHLVESGGGLVQAGGSLRLSCAASGRIRFNAMGWYRQAPGKERELVAAITSDGGRTYYADSVKGRFTISRDNAKNTVYLQMNSLKPEDTAVYYCNTDYILWGDYDYWGQGTQVTVSS | low polyreactivity
QVHLVESGGGLVQAGGSLRLSCAASGRLLVLNDMGWYRPEPGKVMELVADITSGGSTYYADSVKGRFTISRDNAKKTDYLQMNSLKPEDPAVYYCAADWNTYPDYQQSYFVSYEYNYWGQGTQVTVSS | low polyreactivity
QVHLVESGGGLVQAGGSLRLSCAASGRTFDDYAMGWYRQAPGKERELVAAISSSGGSTYYADSVKGRFTISRDNAKNTVYLQMNSLKPEDTAVYYCAADYDWGYWYDYWGQGTQVTVSS | low polyreactivity

Sequence | polyreactivity (PSR sort gate)
QVHLVESGGGLVQAGGSLRLSCAASGRTFDRNAMGWYIQAPGKERELVAAISRNGGSTYYADSVKGRFTISRDNAKNTVYLQMNSLKPEDTAVYYCAAPRSVYDVARGDYWGQGTQVTVSS | high polyreactivity
QVHLVESGGGLVQAGGSLRLSCAASGRTFETYAMGWYRQSPGKERELVAAITTSGGTTYYADSVKGRFTISRDNAKNTVYLQMKSLKPEDTAVYYCAADPWIEDTYGSKAYYYWGQGTQVTVSS | low polyreactivity
QVHLVESGGGLVQAGGSLRLSCAASGRTFGRKAMGWYRQAPGKERELVASITKRGGSTYYADSVKGRFTISRDNAKNTVYLQMNSLKPVDTAVYYCAVEAYDYWGQGTQVTVSS | high polyreactivity
QVHLVESGGGLVQAGGSLRLSCAASGRTFGTYAMGWYRQAPGKERELVAAISSGGSTNYADSVKGRFTISRGNAKNTVYLQMNSLKPEDTAVYYCAAQGYWTYWPYLLRLYDYWGQGTQVTVSS | low polyreactivity
QVHLVESGGGLVQAGGSLRLSCAASGRTFGWNVMGWYRQAPGKERELVAAISGSGGSTYYADSVKGRFTISRDNAKNTVYLQMMSLKPEDTAVYYCAKEYPWMPRSYEYWGQGTQVTVSS | low polyreactivity
QVHLVESGGGLVQAGGSLRLSCAASGRTFGWNVMGWYRQAPGKERELVAAISGSGGSTYYADSVKGRFTISRDNAKNTVYLQMNSLKPEVTAVYYCAALYGPGREYDYWGQGTQVTVSS | low polyreactivity
QVHLVESGGGLVQAGGSLRLSCAASGRTFHYYAMGWYRQAPGKERELVAAISVSGGSTYYADSVKGRFTISRDNAKNTVYLQMNSLKPEDNAVYYCAADDYLVEHDYWGQGTQVTVSS | low polyreactivity
QVHLVESGGGLVQAGGSLRLSCAASGRTFPSYAMGWYRQAPGKERELVAAITRGGSTYYADSVKGRFTISRDNAKNTVYLQMNSLKPEDTAVYYCATRYGRARAYYYWGQGTQVTVSS | high polyreactivity
QVHLVESGGGLVQAGGSLRLSCAASGRTFRIYAMGWYRPAPGKERELVAAISRSSTSTYYADSVKGRFTISRDNAKNTVYLQMNSLKPEDTAVYYCAAVVTVQYSQPYDHWGQGTQVTVSS | high polyreactivity
QVHLVESGGGLVQAGGSLRLSCAASGRTFTRYTMGCYRQAPGKESELVAAISRRGGSTYYADSVKGRFTISRHNAKNTVYLQMNSLKPEDTAFYYCNADYVPGRPSFIYDYWGQGTQVTVSS | high polyreactivity
QVHLVESGGGLVQAGGSLRLSCAASGRTFYPFGMGWYRQATGKERELVATITYSGARTYYADTVKGRFTISRDNAKNTVYLQMNILKPEDTAVYYCAAGYYWGIGTGFDYWGQGTQVTVSS | high polyreactivity
QVHLVESGGGLVQAGGSLRLSCAASGRTFYTYAMGWYRQATGKERELVAVIRRDGSTSYADSVKGRFTISRDNAKNTVFLQKNSLKPEDTAVYYCAVTRRGEYYWGQGTQVTVSS | high polyreactivity
QVHLVESGGGLVQAGGSLRLSCAASGRTLYDYAMEWYRQAPAKERELVAGITSGDSTYYADSVKGRFTISRDNAKNTVYLQMNSLKPEDTAVYYCAADSDTFYYTGYDYDYWGQGTQVTVSS | low polyreactivity
QVHLVESGGGLVQAGGSLRLSCAASGRTYARYTMAWYRQAPGKEREMVASITRGGSTYFADSVKGRFTISRDNAKNTVYLQMNSLKPGDTAVYYCAARFPQHNYWAMDYWGLGTQVTVSS | high polyreactivity
QVHLVESGGGLVQAGGSLRLSCAASGSIFEENAMGWYRQAPGKERELVAVISTRDGRTYYADSVKGRFTISRDNAKNTVYLQMNSLKPEDTAVYYCAASPDPYWRRMDYWGQGTQVTVSS | high polyreactivity
QVHLVESGGGLVQAGGSLRLSCAASGSIFFNNAMGWYRQPPGKERELVAAINYGNGSTYYADSVKGRFTISRDNAKNTVYLQMNSLKPEDTAVYYCNADYTGTRSDSVTPEYEYWGQGTQVTVSS | low polyreactivity
QVHLVESGGGLVQAGGSLRLSCAASGSIFRGYAMGWYRQAPGRERELVAAISRSGGSTYYADSVKGRFTISRDNAKNTVYLQRNSLKPEDTAGYYCAALLRGRYRMYYWGQGTQVTVSS | high polyreactivity
QVHLVESGGGLVQAGGSLRLSCAASGSIFSGNAMGWYRQAPGKERELVAAITSSGGNTYYADSVKGRFTISRDNAKNTVYLQMNSLKPADTAVYYCAADGVYWRWYLYTFWMDYWGQGTQVTVSS | low polyreactivity
QVHLVESGGGLVQAGGSLRLSCAASGSIFTGYAMGWYRQAPGKERELVAGISWGGTSTYYADSVKGRFTISRDNAKNTVYLQMNSLKPEDTAVYYCAAKPYYFYGMDYWGQGTQVTVSS | high polyreactivity
QVHLVESGGGLVQAGGSLRLSCAASGSIFTPYAMGWYRQAPGKERELVATISWSGGRTYYADSVKGRFTISRDNAKNTVYLQMNSLKPEDTAVYYCAARGYSSEYDYWGQGTQVTVSS | high polyreactivity
